Measured values taken from article PMC3302801, “Regulation of the vapBC-1 Toxin-Antitoxin Locus in Nontypeable Haemophilus influenzae”.

How the values were obtained:
[1] = target: T1, VapB-1 (Haemophilus influenzae (nontypeable, R2866)) (UniProt E4QWH3); assay: DNase I footprinting; conditions: EMSA: 20 mM HEPES pH 7.5, 100 mM NaCl, 0.1 mM EDTA, 1 mM DTT, 50 ug/mL BSA, 5% glycerol, 1 nM DNA, 25 C (gel 4 C); DNase I: 25 mM Tris-HCl pH 7.4, 70 mM KCl …
T1 sequence: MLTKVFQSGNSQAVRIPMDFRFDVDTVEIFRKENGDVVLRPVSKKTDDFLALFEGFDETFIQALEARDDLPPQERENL

VapB-1 [2] = target: T2, VapB-1 (Haemophilus influenzae (nontypeable, …, UniProt E4QWH3 1-78)); assay: EMSA; 300:1; EMSA: 20 mM HEPES pH 7.5, 100 mM NaCl, 0.1 mM EDTA, 1 mM DTT, 50 ug/mL BSA, 5% glycerol, 1 nM DNA, 25 C (gel 4 C); DNase I: 25 mM Tris-HCl pH 7.4, 70 mM KCl, 7; conditions: protein: recombinant; tags: C-terminal polyhistidine (pET24b); chain copies: 2; blunt
T2 sequence: T1 sequence

VapB-1 [3] = target: T2, VapB-1; assay: EMSA; up to 300:1; EMSA: 20 mM HEPES pH 7.5, 100 mM NaCl, 0.1 mM EDTA, 1 mM DTT, 50 ug/mL BSA, 5% glycerol, 1 nM DNA, 25 C (gel 4 C); DNase I: 25 mM Tris-HCl pH 7.4, 70 mM KCl, 7; conditions: protein: recombinant; tags: C-terminal polyhistidine (pET24b); chain copies: 2; label: 5'-32P sense strand; blunt

Q: Which binding [1] does the source give for “GTTAGGATCCTGAAACACTTTAGTAAGCATATTTACCCTCTCGTATATACTATGTATTTAATAAGTATATACTAATCATTTCAATTGCTGTATGCAAGTAAGAAGATCAAATTACCGTTGTTTTATTTAACCGCAATCATCGAGCGAATTCTAA (double strand) [153 bp vapBC-1 locus control region]” here?
A: no binding

B1: 50US (dsDNA)
DNA 1: AACAACGGTAATTTGATCTTCTTACTTGCATACAGCAATTGAAATGATTA
DNA 2: TAATCATTTCAATTGCTGTATGCAAGTAAGAAGATCAAATTACCGTTGTT
Q: Does B1 bind (VapB-1 [2])?
A: no binding

B2: 50TIR (dsDNA)
DNA 1: AATGATTAGTATATACTTATTAAATACATAGTATATACGAGAGGGTAAAT
DNA 2: ATTTACCCTCTCGTATATACTATGTATTTAATAAGTATATACTAATCATT
Q: Does B2 bind (VapB-1 [3])?
A: no binding
